# B1: RNF115 peptide 69-84 (E3 ubiquitin-protein ligase RNF115), 16-mer library wild type / MDM2 SWIB (MDM2 SWIB/MDM2 domain, residues 17-125) (parent complex)
# chain 1: THFAELWGHLDHTMFF
# chain 2: SQIPASEQETLVRPKPLLLKLLKSVGAQKDTYTMKEVLFYLGQYIMTKRLYDEKQQHIVYCSNDLLGDLFGVPSFSVKEHRKIYTMIYRNLVVVNQQESSDSGTSVSEN
# Variants of: B1
# Experiment: proteomic peptide phage display deep mutational scan (ProP-PD DMS): M13 P8 16-mer library selected against immobilised GST-tagged bait for four days (rounds), NGS of the eluted pools per day and pseudo-replica; bait immobilised on MaxiSorp plates (10 µg), library pre-cleared on GST, 2 h binding at 4 °C, five washes; one round per day, days 1-4; value from days 2 and 3
row,Variant,screen value
1,chain 1 A4E,"0.000667 average fractional NGS count over selection days 2 and 3 (reads of this peptide / all reads for the bait, averaged over …"
2,chain 1 A4H,"0.00203 average fractional NGS count over selection days 2 and 3 (reads of this peptide / all reads for the bait, averaged over …"
3,chain 1 A4L,"0.000327 average fractional NGS count over selection days 2 and 3 (reads of this peptide / all reads for the bait, averaged over …"
4,chain 1 A4I,"0.000788 average fractional NGS count over selection days 2 and 3 (reads of this peptide / all reads for the bait, averaged over …"
5,chain 1 A4Q,"0.000494 average fractional NGS count over selection days 2 and 3 (reads of this peptide / all reads for the bait, averaged over …"
6,chain 1 A4G,"0.000193 average fractional NGS count over selection days 2 and 3 (reads of this peptide / all reads for the bait, averaged over …"
7,chain 1 A4Y,"0.000442 average fractional NGS count over selection days 2 and 3 (reads of this peptide / all reads for the bait, averaged over …"
8,chain 1 A4D,"0.000369 average fractional NGS count over selection days 2 and 3 (reads of this peptide / all reads for the bait, averaged over …"
9,chain 1 T13D,"0.00412 average fractional NGS count over selection days 2 and 3 (reads of this peptide / all reads for the bait, averaged over …"
10,chain 1 T13K,"0.000352 average fractional NGS count over selection days 2 and 3 (reads of this peptide / all reads for the bait, averaged over …"
11,chain 1 T13S,"0.0255 average fractional NGS count over selection days 2 and 3 (reads of this peptide / all reads for the bait, averaged over …"
12,chain 1 T13I,"0.00105 average fractional NGS count over selection days 2 and 3 (reads of this peptide / all reads for the bait, averaged over …"
13,chain 1 T13N,"0.00271 average fractional NGS count over selection days 2 and 3 (reads of this peptide / all reads for the bait, averaged over …"
14,chain 1 T13A,"0.00106 average fractional NGS count over selection days 2 and 3 (reads of this peptide / all reads for the bait, averaged over …"
15,chain 1 T13M,"0.000376 average fractional NGS count over selection days 2 and 3 (reads of this peptide / all reads for the bait, averaged over …"
16,chain 1 T13Y,"0.00269 average fractional NGS count over selection days 2 and 3 (reads of this peptide / all reads for the bait, averaged over …"
17,chain 1 T13L,"0.00319 average fractional NGS count over selection days 2 and 3 (reads of this peptide / all reads for the bait, averaged over …"
18,chain 1 G8K,"0.000179 average fractional NGS count over selection days 2 and 3 (reads of this peptide / all reads for the bait, averaged over …"
19,chain 1 G8E,"0.00632 average fractional NGS count over selection days 2 and 3 (reads of this peptide / all reads for the bait, averaged over …"
20,chain 1 G8Y,"0.00157 average fractional NGS count over selection days 2 and 3 (reads of this peptide / all reads for the bait, averaged over …"
21,chain 1 G8S,"0.0101 average fractional NGS count over selection days 2 and 3 (reads of this peptide / all reads for the bait, averaged over …"
22,chain 1 G8Q,"0.0015 average fractional NGS count over selection days 2 and 3 (reads of this peptide / all reads for the bait, averaged over …"
23,chain 1 L6Y,"0.00417 average fractional NGS count over selection days 2 and 3 (reads of this peptide / all reads for the bait, averaged over …"
24,chain 1 L6W,"0.000846 average fractional NGS count over selection days 2 and 3 (reads of this peptide / all reads for the bait, averaged over …"
25,chain 1 L6Q,"0.000157 average fractional NGS count over selection days 2 and 3 (reads of this peptide / all reads for the bait, averaged over …"

row,Variant,screen value
1,chain 1 L6H,"0.00174 average fractional NGS count over selection days 2 and 3 (reads of this peptide / all reads for the bait, averaged over …"
2,chain 1 L6F,"0.00096 average fractional NGS count over selection days 2 and 3 (reads of this peptide / all reads for the bait, averaged over …"
3,chain 1 L6I,"0.000313 average fractional NGS count over selection days 2 and 3 (reads of this peptide / all reads for the bait, averaged over …"
4,chain 1 H2S,"0.0241 average fractional NGS count over selection days 2 and 3 (reads of this peptide / all reads for the bait, averaged over …"
5,chain 1 H2T,"0.00209 average fractional NGS count over selection days 2 and 3 (reads of this peptide / all reads for the bait, averaged over …"
6,chain 1 H2D,"0.00139 average fractional NGS count over selection days 2 and 3 (reads of this peptide / all reads for the bait, averaged over …"
7,chain 1 H2Y,"0.000608 average fractional NGS count over selection days 2 and 3 (reads of this peptide / all reads for the bait, averaged over …"
8,chain 1 E5D,"0.00488 average fractional NGS count over selection days 2 and 3 (reads of this peptide / all reads for the bait, averaged over …"
9,chain 1 E5W,"0.00018 average fractional NGS count over selection days 2 and 3 (reads of this peptide / all reads for the bait, averaged over …"
10,chain 1 E5T,"0.000518 average fractional NGS count over selection days 2 and 3 (reads of this peptide / all reads for the bait, averaged over …"
11,chain 1 E5A,"0.000481 average fractional NGS count over selection days 2 and 3 (reads of this peptide / all reads for the bait, averaged over …"
12,chain 1 T1L,"0.000174 average fractional NGS count over selection days 2 and 3 (reads of this peptide / all reads for the bait, averaged over …"
13,chain 1 T1G,"0.000168 average fractional NGS count over selection days 2 and 3 (reads of this peptide / all reads for the bait, averaged over …"
14,chain 1 T1Q,"0.00081 average fractional NGS count over selection days 2 and 3 (reads of this peptide / all reads for the bait, averaged over …"
15,chain 1 T1Y,"0.000395 average fractional NGS count over selection days 2 and 3 (reads of this peptide / all reads for the bait, averaged over …"
16,chain 1 T1I,"0.000116 average fractional NGS count over selection days 2 and 3 (reads of this peptide / all reads for the bait, averaged over …"
17,chain 1 T1N,"0.000471 average fractional NGS count over selection days 2 and 3 (reads of this peptide / all reads for the bait, averaged over …"
18,chain 1 T1P,"0.00338 average fractional NGS count over selection days 2 and 3 (reads of this peptide / all reads for the bait, averaged over …"
19,chain 1 M14D,"0.00118 average fractional NGS count over selection days 2 and 3 (reads of this peptide / all reads for the bait, averaged over …"
20,chain 1 M14S,"0.00183 average fractional NGS count over selection days 2 and 3 (reads of this peptide / all reads for the bait, averaged over …"
21,chain 1 M14W,"0.00207 average fractional NGS count over selection days 2 and 3 (reads of this peptide / all reads for the bait, averaged over …"
22,chain 1 M14Y,"0.00313 average fractional NGS count over selection days 2 and 3 (reads of this peptide / all reads for the bait, averaged over …"
23,chain 1 M14T,"0.00238 average fractional NGS count over selection days 2 and 3 (reads of this peptide / all reads for the bait, averaged over …"
24,chain 1 M14N,"0.00152 average fractional NGS count over selection days 2 and 3 (reads of this peptide / all reads for the bait, averaged over …"
25,chain 1 M14G,"0.000223 average fractional NGS count over selection days 2 and 3 (reads of this peptide / all reads for the bait, averaged over …"

row,Variant,screen value
1,chain 1 H12P,"0.000332 average fractional NGS count over selection days 2 and 3 (reads of this peptide / all reads for the bait, averaged over …"
2,chain 1 H12A,"0.00464 average fractional NGS count over selection days 2 and 3 (reads of this peptide / all reads for the bait, averaged over …"
3,chain 1 F3Q,"0.000412 average fractional NGS count over selection days 2 and 3 (reads of this peptide / all reads for the bait, averaged over …"
4,chain 1 D11M,"0.000791 average fractional NGS count over selection days 2 and 3 (reads of this peptide / all reads for the bait, averaged over …"
5,chain 1 D11L,"0.000447 average fractional NGS count over selection days 2 and 3 (reads of this peptide / all reads for the bait, averaged over …"
6,chain 1 D11F,"8.75e-05 average fractional NGS count over selection days 2 and 3 (reads of this peptide / all reads for the bait, averaged over …"
7,chain 1 D11R,"0.000139 average fractional NGS count over selection days 2 and 3 (reads of this peptide / all reads for the bait, averaged over …"
8,chain 1 D11I,"0.000389 average fractional NGS count over selection days 2 and 3 (reads of this peptide / all reads for the bait, averaged over …"
9,chain 1 D11G,"0.000731 average fractional NGS count over selection days 2 and 3 (reads of this peptide / all reads for the bait, averaged over …"
10,chain 1 F15A,"0.0214 average fractional NGS count over selection days 2 and 3 (reads of this peptide / all reads for the bait, averaged over …"
11,chain 1 F15G,"0.00105 average fractional NGS count over selection days 2 and 3 (reads of this peptide / all reads for the bait, averaged over …"
12,chain 1 F15N,"0.000153 average fractional NGS count over selection days 2 and 3 (reads of this peptide / all reads for the bait, averaged over …"
13,chain 1 F15V,"0.0496 average fractional NGS count over selection days 2 and 3 (reads of this peptide / all reads for the bait, averaged over …"
14,chain 1 F15L,"0.0296 average fractional NGS count over selection days 2 and 3 (reads of this peptide / all reads for the bait, averaged over …"
15,chain 1 F15P,"0.00458 average fractional NGS count over selection days 2 and 3 (reads of this peptide / all reads for the bait, averaged over …"
16,chain 1 F15I,"0.00139 average fractional NGS count over selection days 2 and 3 (reads of this peptide / all reads for the bait, averaged over …"
17,chain 1 F15T,"0.00702 average fractional NGS count over selection days 2 and 3 (reads of this peptide / all reads for the bait, averaged over …"
18,chain 1 H9E,"0.00208 average fractional NGS count over selection days 2 and 3 (reads of this peptide / all reads for the bait, averaged over …"
19,chain 1 H9Y,"0.000619 average fractional NGS count over selection days 2 and 3 (reads of this peptide / all reads for the bait, averaged over …"
20,chain 1 H9D,"0.0019 average fractional NGS count over selection days 2 and 3 (reads of this peptide / all reads for the bait, averaged over …"
21,chain 1 H9S,"0.00629 average fractional NGS count over selection days 2 and 3 (reads of this peptide / all reads for the bait, averaged over …"
22,chain 1 H9M,"0.00238 average fractional NGS count over selection days 2 and 3 (reads of this peptide / all reads for the bait, averaged over …"
23,chain 1 H9W,"0.000883 average fractional NGS count over selection days 2 and 3 (reads of this peptide / all reads for the bait, averaged over …"
24,chain 1 H9V,"0.00147 average fractional NGS count over selection days 2 and 3 (reads of this peptide / all reads for the bait, averaged over …"
25,chain 1 L10I,"0.00104 average fractional NGS count over selection days 2 and 3 (reads of this peptide / all reads for the bait, averaged over …"

# Source: paper PMC12102759 (2025)
